Laboratory results taken from paper PMC9935876, “Structure of the planar cell polarity cadherins Fat4 and Dachsous1” (Nature Communications, 2023).
Several values for one entry are separate records, joined by “and”; a condition that tells them apart may be missing. Equal entries are not always repeated. Where two headings read alike, the source gives them in different places. Each block holds one binder with its values, some of them ahead of it.

Assays:
human Fat4(EC1–4) = target: T1, human Fat4(EC1–4) (human, UniProt Q6V0I7 43-475); assay: ITC; MicroCal ITC200; Fat4 constructs at 30 µM in the sample cell, Dchs1 constructs at 300 µM as titrants; 20 °C; one set of sites; conditions: both partners purified
T1 construct: human Fat4, EC1–EC4, aa43–475; Form used in ITC; also called wild type Fat4(EC1–4)
T1 sequence: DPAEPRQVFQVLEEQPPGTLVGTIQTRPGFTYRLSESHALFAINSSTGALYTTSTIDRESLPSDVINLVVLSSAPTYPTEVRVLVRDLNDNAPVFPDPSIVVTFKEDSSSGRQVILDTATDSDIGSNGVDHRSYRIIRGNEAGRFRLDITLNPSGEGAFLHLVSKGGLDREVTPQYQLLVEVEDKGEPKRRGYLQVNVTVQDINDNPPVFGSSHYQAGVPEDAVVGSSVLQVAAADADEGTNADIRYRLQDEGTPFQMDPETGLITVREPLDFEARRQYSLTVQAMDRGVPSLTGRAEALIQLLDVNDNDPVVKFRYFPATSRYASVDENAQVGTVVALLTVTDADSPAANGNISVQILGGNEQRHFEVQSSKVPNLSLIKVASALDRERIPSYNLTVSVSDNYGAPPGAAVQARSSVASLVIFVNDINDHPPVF

Human Fat4(EC1-4) [1] = target: T2, Human Fat4(EC1-4) (human, UniProt Q6V0I7 43-475); assay: ITC; MicroCal ITC200; Fat4 construct 30 µM in the sample cell, Dchs1 construct 300 µM as titrant; 20 °C; fitted with one set of sites; two independent experiments; conditions: both partners purified
T2 construct: Fat4, human, EC1-EC4, aa43-475; Tags were cleaved only for the constructs meant for co-crystallisation; nothing is said for ITC; also called Fat4 EC1–EC4
T2 sequence: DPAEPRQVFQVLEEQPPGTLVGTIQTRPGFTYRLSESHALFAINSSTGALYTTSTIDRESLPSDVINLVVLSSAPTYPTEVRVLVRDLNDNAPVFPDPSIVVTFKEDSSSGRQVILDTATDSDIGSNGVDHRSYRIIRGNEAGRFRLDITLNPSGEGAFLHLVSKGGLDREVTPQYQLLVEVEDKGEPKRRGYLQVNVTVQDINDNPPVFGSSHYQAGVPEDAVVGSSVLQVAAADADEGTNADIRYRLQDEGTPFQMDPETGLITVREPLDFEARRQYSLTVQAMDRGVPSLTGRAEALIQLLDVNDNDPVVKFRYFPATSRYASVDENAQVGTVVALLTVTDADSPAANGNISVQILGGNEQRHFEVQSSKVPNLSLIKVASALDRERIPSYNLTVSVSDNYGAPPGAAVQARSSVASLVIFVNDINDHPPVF

Human Fat4(EC1-4) R152A = target: T3, Human Fat4(EC1-4) R152A (human, UniProt Q6V0I7 43-475, R152A); assay: ITC; MicroCal ITC200; Fat4 constructs at 30 µM in the sample cell, Dchs1 constructs at 300 µM as titrants; 20 °C; one set of sites
T3 construct: human Fat4, EC1-EC4, aa43-475, with R152A in EC2; also called Fat4R152A(EC1-4); Fat4R152A
T3 sequence: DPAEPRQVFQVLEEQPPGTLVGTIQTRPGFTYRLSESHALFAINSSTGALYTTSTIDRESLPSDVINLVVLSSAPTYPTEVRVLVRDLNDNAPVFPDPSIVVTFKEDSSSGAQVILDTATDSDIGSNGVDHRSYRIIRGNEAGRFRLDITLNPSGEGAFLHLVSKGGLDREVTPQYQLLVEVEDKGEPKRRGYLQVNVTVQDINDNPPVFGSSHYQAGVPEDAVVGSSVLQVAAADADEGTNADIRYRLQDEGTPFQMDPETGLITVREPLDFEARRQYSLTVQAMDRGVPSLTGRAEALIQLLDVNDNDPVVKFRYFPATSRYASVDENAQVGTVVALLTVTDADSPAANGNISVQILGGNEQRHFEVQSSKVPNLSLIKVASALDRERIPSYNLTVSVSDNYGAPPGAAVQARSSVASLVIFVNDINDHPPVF

[2] = target: Human Fat4R152A(EC1-4) (human) (UniProt Q6V0I7); assay: ITC; MicroCal ITC200; Fat4 construct 30 µM in the sample cell, Dchs1 construct 300 µM as titrant; 20 °C; fitted with one set of sites; two independent experiments
Human Fat4(EC1-4) [3] = target: T4, Human Fat4(EC1-4) (human, UniProt Q6V0I7 43-475); assay: ITC; MicroCal ITC200; Fat4 constructs 30 µM in the sample cell, Dchs1 constructs 300 µM as titrants; 20 °C; one set of sites; conditions: both partners purified
T4 construct: human Fat4, extracellular cadherin domains EC1-EC4, aa43-475; A 3C protease site stands between the protein and the C-terminal BAP-tag and His6; also called WT
T4 sequence: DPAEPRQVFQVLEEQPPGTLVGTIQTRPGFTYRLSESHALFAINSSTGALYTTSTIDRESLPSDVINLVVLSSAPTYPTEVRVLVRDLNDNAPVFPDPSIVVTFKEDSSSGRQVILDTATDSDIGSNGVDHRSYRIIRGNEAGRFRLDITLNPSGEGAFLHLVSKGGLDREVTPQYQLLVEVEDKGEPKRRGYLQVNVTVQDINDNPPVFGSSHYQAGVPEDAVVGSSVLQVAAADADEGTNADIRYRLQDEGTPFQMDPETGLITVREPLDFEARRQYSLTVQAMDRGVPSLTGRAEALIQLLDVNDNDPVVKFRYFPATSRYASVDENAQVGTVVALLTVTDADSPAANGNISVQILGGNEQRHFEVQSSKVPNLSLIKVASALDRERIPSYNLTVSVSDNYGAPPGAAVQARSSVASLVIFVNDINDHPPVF

Kd (human Fat4(EC1–4)): 980 ± 120 nM
B1: human Dchs1(EC1–3) (domain or fragment)
chain: DPQAGSLDLQIDEEQPAGTLIGDISAGLPAGTAAPLMYFISAQEGSGVGTDLAIDEHSGVVRTARVLDREQRDRYRFTAVTPDGATVEVTVRVADINDHAPAFPQARAALQVPEHTAFGTRYPLEPARDADAGRLGTQGYALSGDGAGETFRLETRPGPDGTPVPELVVTGELDRENRSHYMLQLEAYDGGSPPRRAQALLDVTLLDINDHAPAFNQSRYHAVVSESLAPGSPVLQVFASDADAGVNGAVTYEINRRQSEGDGPFSIDAHTGLLQLERPLDFEQRRVHELVVQARDGGAHPELGSAFVTVHVRDANDNQPSM
notes: human Dchs1, EC1–EC3, aa43–362; Form used in ITC; also called wild type Dchs1(EC1–3)

fold decrease in binding affinity against wild type (Human Fat4(EC1-4) R152A): 9 fold
B3: human Dchs1(EC1–4) (domain or fragment)
chain: DPQAGSLDLQIDEEQPAGTLIGDISAGLPAGTAAPLMYFISAQEGSGVGTDLAIDEHSGVVRTARVLDREQRDRYRFTAVTPDGATVEVTVRVADINDHAPAFPQARAALQVPEHTAFGTRYPLEPARDADAGRLGTQGYALSGDGAGETFRLETRPGPDGTPVPELVVTGELDRENRSHYMLQLEAYDGGSPPRRAQALLDVTLLDINDHAPAFNQSRYHAVVSESLAPGSPVLQVFASDADAGVNGAVTYEINRRQSEGDGPFSIDAHTGLLQLERPLDFEQRRVHELVVQARDGGAHPELGSAFVTVHVRDANDNQPSMTVIFLSADGSPQVSEAAPPGQLVARISVSDPDDGDFAHVNVSLEGGEGHFALSTQDSVIYLVCVARRLDREERDAYNLRVTATDSGSPPLRAEAAFVLHVTDVNDNAPAF

Kd (human Fat4(EC1–4)): 470 ± 130 nM
B5: human Dchs1(EC1–4) (domain or fragment)
chain: DPQAGSLDLQIDEEQPAGTLIGDISAGLPAGTAAPLMYFISAQEGSGVGTDLAIDEHSGVVRTARVLDREQRDRYRFTAVTPDGATVEVTVRVADINDHAPAFPQARAALQVPEHTAFGTRYPLEPARDADAGRLGTQGYALSGDGAGETFRLETRPGPDGTPVPELVVTGELDRENRSHYMLQLEAYDGGSPPRRAQALLDVTLLDINDHAPAFNQSRYHAVVSESLAPGSPVLQVFASDADAGVNGAVTYEINRRQSEGDGPFSIDAHTGLLQLERPLDFEQRRVHELVVQARDGGAHPELGSAFVTVHVRDANDNQPSMTVIFLSADGSPQVSEAAPPGQLVARISVSDPDDGDFAHVNVSLEGGEGHFALSTQDSVIYLVCVARRLDREERDAYNLRVTATDSGSPPLRAEAAFVLHVTDVNDNAPAF
notes: human Dchs1, EC1–EC4, aa43–472; Form used in ITC; also called Dachsous1(EC1–4); wild type Dchs1(EC1–4)

stoichiometry N (Human Fat4(EC1-4) [3]): 1.02 ± 0.138 sites
B6: Human Dchs1(EC1-4) R297A (domain or fragment)
chain: DPQAGSLDLQIDEEQPAGTLIGDISAGLPAGTAAPLMYFISAQEGSGVGTDLAIDEHSGVVRTARVLDREQRDRYRFTAVTPDGATVEVTVRVADINDHAPAFPQARAALQVPEHTAFGTRYPLEPARDADAGRLGTQGYALSGDGAGETFRLETRPGPDGTPVPELVVTGELDRENRSHYMLQLEAYDGGSPPRRAQALLDVTLLDINDHAPAFNQSRYHAVVSESLAPGSPVLQVFASDADAGVNGAVTYEINRAQSEGDGPFSIDAHTGLLQLERPLDFEQRRVHELVVQARDGGAHPELGSAFVTVHVRDANDNQPSMTVIFLSADGSPQVSEAAPPGQLVARISVSDPDDGDFAHVNVSLEGGEGHFALSTQDSVIYLVCVARRLDREERDAYNLRVTATDSGSPPLRAEAAFVLHVTDVNDNAPAF
notes: human Dachsous1 (Dchs1), EC1-EC4, aa43-472, with R297A; also called Dchs1R297A(EC1-4); Dchs1R297A

Continued, binder first:

B2: Human Dchs1(EC1-3) (domain or fragment)
chain: DPQAGSLDLQIDEEQPAGTLIGDISAGLPAGTAAPLMYFISAQEGSGVGTDLAIDEHSGVVRTARVLDREQRDRYRFTAVTPDGATVEVTVRVADINDHAPAFPQARAALQVPEHTAFGTRYPLEPARDADAGRLGTQGYALSGDGAGETFRLETRPGPDGTPVPELVVTGELDRENRSHYMLQLEAYDGGSPPRRAQALLDVTLLDINDHAPAFNQSRYHAVVSESLAPGSPVLQVFASDADAGVNGAVTYEINRRQSEGDGPFSIDAHTGLLQLERPLDFEQRRVHELVVQARDGGAHPELGSAFVTVHVRDANDNQPSM
notes: Dchs1 (Dachsous1), human, EC1-EC3, aa43-362
Kd (Human Fat4(EC1-4) [1]): 980 nM and 970 nM

B4: Human Dchs1(EC1-4) (domain or fragment)
chain: DPQAGSLDLQIDEEQPAGTLIGDISAGLPAGTAAPLMYFISAQEGSGVGTDLAIDEHSGVVRTARVLDREQRDRYRFTAVTPDGATVEVTVRVADINDHAPAFPQARAALQVPEHTAFGTRYPLEPARDADAGRLGTQGYALSGDGAGETFRLETRPGPDGTPVPELVVTGELDRENRSHYMLQLEAYDGGSPPRRAQALLDVTLLDINDHAPAFNQSRYHAVVSESLAPGSPVLQVFASDADAGVNGAVTYEINRRQSEGDGPFSIDAHTGLLQLERPLDFEQRRVHELVVQARDGGAHPELGSAFVTVHVRDANDNQPSMTVIFLSADGSPQVSEAAPPGQLVARISVSDPDDGDFAHVNVSLEGGEGHFALSTQDSVIYLVCVARRLDREERDAYNLRVTATDSGSPPLRAEAAFVLHVTDVNDNAPAF
Kd [2]: 3390 nM and 5180 nM | Kd ([2]; mean): 4280 nM

B7: Human Dchs1(EC1-4) F79A (domain or fragment)
chain: DPQAGSLDLQIDEEQPAGTLIGDISAGLPAGTAAPLMYAISAQEGSGVGTDLAIDEHSGVVRTARVLDREQRDRYRFTAVTPDGATVEVTVRVADINDHAPAFPQARAALQVPEHTAFGTRYPLEPARDADAGRLGTQGYALSGDGAGETFRLETRPGPDGTPVPELVVTGELDRENRSHYMLQLEAYDGGSPPRRAQALLDVTLLDINDHAPAFNQSRYHAVVSESLAPGSPVLQVFASDADAGVNGAVTYEINRRQSEGDGPFSIDAHTGLLQLERPLDFEQRRVHELVVQARDGGAHPELGSAFVTVHVRDANDNQPSMTVIFLSADGSPQVSEAAPPGQLVARISVSDPDDGDFAHVNVSLEGGEGHFALSTQDSVIYLVCVARRLDREERDAYNLRVTATDSGSPPLRAEAAFVLHVTDVNDNAPAF
notes: human Dachsous1 (Dchs1), EC1-EC4, aa43-472, with F79A in EC1; also called Dchs1F79A(EC1-4); Dchs1F79A
stoichiometry N (Human Fat4(EC1-4) [3]): 0.924 ± 0.00978 sites
